# Measured values taken from the emibetuzumab library of Makowski et al. (2022).
# B1: VH:VL chains; a variant is named by its letters at X, in order (parent)
# chain 1: QVQLVQSGAEVKKPGASVKVSCKASGYTFTDYXMHWVRQAPGQGLEWMGXVNPNXXXTTYNQKFEGRVTMTTDTSTSTAYMELRSLRSDDTAVYYCARXNXLDXWGQGTTVTVSS
# chain 2: DIQMTQSPSSLSASVGDRVTITCSVSSSVSSIYLHWYQQKPGKAPKLLIYSTSNLASGVPSRFSGSGSGTDFTLTISSLQPEDFATYYCQVYSGYPLTFGGGTKVEIK
# Variants of: B1
# Experiment: yeast display scFab, FACS + sequencing
# In short: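 Non-specific binding was called from deep sequencing of sorted yeast cells displaying a heavy-chain CDR mutant scFab library. Cells labelled with anti-Myc and biotinylated ovalbumin (260 μg/mL in PBSB, 3 h, room temperature) or soluble membrane proteins (130 μg/mL, 20 min on ice) were FACS-sorted, collecting the top 25% and bottom 10% of binders from two replicates. A sequence was positive when present in ≥3 of 4 pooled positive samples and absent from all negatives, and negative under the converse rule.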
row,Variant,non-specific binding call
1,VTREGAVA,no binding
2,VTTKSDVF,no binding
3,VTTKSDVA,no binding
4,DTREGDAV,no binding
5,ATTKSAGD,no binding
6,YTGTSDLA,no binding
7,YTGTSDLV,no binding
8,YTGTSDLD,no binding
9,DTREGAVV,no binding
10,YTKRSSGA,binds
11,YTTGGSSA,no binding
12,VTTKSDGY,no binding
13,VTTKSDGA,no binding
14,VTGTSSLD,no binding
15,DTTEASLV,no binding
16,ATTRGAVA,no binding
17,VTTRDDSD,no binding
18,YTKTSSVD,binds
19,VTTKSAAA,no binding
20,VTTKSAAV,no binding
21,YTTRGAGA,no binding
22,DTKAADWY,no binding
23,DTKAADWV,no binding
24,YTGTSAGV,no binding

row,Variant,non-specific binding call
1,YTGTSAGD,no binding
2,DTTGSDAV,no binding
3,FTKGSAGY,binds
4,FTTRDDSD,no binding
5,VTTKSSVA,no binding
6,YTRGAALA,no binding
7,DTTKGDVV,no binding
8,DTTKGDVA,no binding
9,STTKSDGV,no binding
10,STGTSDLY,no binding
11,FTKAASWV,no binding
12,DTTGSASD,no binding
13,DTTGSASF,no binding
14,YTGTSDGV,no binding
15,ATRGADAV,no binding
16,STGTSDVF,no binding
17,ATKTAFVS chain 1 M34I,no binding
18,VTKTGAAA,no binding
19,ATTGGDGV,no binding
20,YTTGGAVA,no binding
21,DTTRGAVA,no binding
22,VTTGGDGV,no binding
23,YTRGASSS,no binding
24,ATTKSAVA,no binding

row,Variant,non-specific binding call
1,VTGTSDLY,no binding
2,YTKKTFSY,binds
3,STTGGDGV,no binding
4,YTGTSDWV,no binding
5,YTGTSDWY,no binding
6,VTTKSDWV,no binding
7,YTTGGDWA,no binding
8,YTTRGDGV,no binding
9,STRGADAV,no binding
10,ATRTDDVF,no binding
11,DTKRTAGD,no binding
12,DTTGGDGV,no binding
13,YTRGAAGY,no binding
14,YTRGAAGV,no binding
15,DTGTSDLY,no binding
16,FTRAGAAA,binds
17,YTKTGDAV,no binding
18,YTKRSAVV,binds
19,YTKGTSVA chain 1 E65K,binds
20,DTGTSAAF,binds
21,DTKAAAVV,no binding
22,FTRESFAA,binds
23,FTREASAV,binds
24,VTTKGDVF,no binding

row,Variant,non-specific binding call
1,ATTGSASF,no binding
2,DTKAASSA,no binding
3,DTKAASSS,no binding
4,YTRGASLD,no binding
5,ATTKSDAA,no binding
6,VTKGGSSA,no binding
7,YTRGASWV,no binding
8,VTTKSDAV,no binding
9,FTGTSDLY,no binding
10,YTGTSAVA,no binding
11,YTGTSAVV,no binding
12,YTGTSAVS,no binding
13,YTKEASGY,binds
14,VTRGDSGA,no binding
15,DTREGDGA,no binding
16,YTTRDDSD,no binding
17,VTRGDVWV,no binding
18,VTTKSYLV,no binding
19,ATTKSDGV,no binding
20,ATTKSDGA,no binding
21,DTKGDSVS,no binding
22,YTRGADLA,no binding
23,YTKETAAD,binds
24,FTRGADAV,no binding

row,Variant,non-specific binding call
1,YTRGNAWA,binds
2,DTRGADAV,no binding
3,DTTGSSGV,no binding
4,DTTGSDWY,no binding
5,DTTGSDWV,no binding
6,DTTGSDWA,no binding
7,ATKGAAVA,no binding
8,DTTRADVD,no binding
9,STRKSYAA,binds
10,YTGTSASD,no binding
11,VTTGSASF,no binding
12,VTRGADGV,no binding
13,YTGTSSGA,no binding
14,FTGTSAAF,binds
15,YTRGADGV,no binding
16,YTRGADGS,no binding
17,YTRGADGA,no binding
18,VTKAASWV,no binding
19,STKAASWV,no binding
20,YTTGSASF,no binding
21,YTGTSDVS,no binding
22,YTGTSDVY,no binding
23,FTTGGSAV chain 1 M48I,no binding
24,VTTKSSSA,no binding

row,Variant,non-specific binding call
1,FTTRSALS,binds
2,VTTKSAGV,no binding
3,VTTKSAGD,no binding
4,FTRTNFLS,binds
5,VTTRADVA,no binding
6,VTTRADVF,no binding
7,VTTRADVV,no binding
8,VTTRADVY,no binding
9,YTTRGSWV,no binding
10,DTTKSDGV,no binding
11,YTRGAASD,no binding
12,YTRGADVV,no binding
13,YTRGADVA,no binding
14,VTRGASGA,no binding
15,DTREGDVY,no binding
16,DTREGDVD,no binding
17,DTREGDVA,no binding
18,YTGTSAWA,no binding
19,DTKAADVA,no binding
20,VTTRASGD,no binding
21,DTKRTAVA,binds
22,YTTGGDVA,no binding
23,ATKAASWV,no binding
24,DTTRDDSD,no binding

row,Variant,non-specific binding call
1,VTTKSAVA,no binding
2,VTKTGDVA,no binding
3,DTKAASGV,no binding
4,YTGTSDAV,no binding
5,FTKASYVY,binds
6,VTTRGAVA,no binding
7,DTKAASWA,no binding
8,DTKAASWV,no binding
9,FTTRGAVA,no binding
10,DTTGSAVV,no binding
11,DTTGSAVA,no binding
12,YTKRGSAA,binds
13,DTTKGDGS,no binding
14,VTTKSDLA,no binding
15,STKRSFWA,binds
16,YTGTSSAD,no binding
17,YTKRGDWD,binds
18,YTTKSDGV,no binding
19,VTTGGAVD,no binding
20,YTRGASGA,no binding
21,VTTKSSAV,no binding
22,STTGSASF,no binding
23,YTRGSAWV,binds
24,YTRAGAAA,binds

row,Variant,non-specific binding call
1,VTTRAASV,no binding
2,DTRTAYGF,binds
3,YTRGAAVA,no binding
4,VTTADDWV,no binding
5,DTTKSSSS,no binding
6,DTTGSDVF,no binding
7,DTTGSDVY,no binding
8,YTGTSSSV,no binding
9,YTGTSSSA,no binding
10,DTKAADGV,no binding
11,DTTGSALD,no binding
12,VTKTGDAV,no binding
13,YTKAASWV,no binding
14,YTTGGDGA,no binding
15,YTGTSSLD,no binding
16,YTRGADWY,no binding
17,YTRGADWA,no binding
18,ATTKSDVA,no binding
19,VTTRAAVS,no binding
20,DTGTGSWD,no binding
21,YTTGGAAV,no binding
22,VTGTGYVF,no binding
23,YTRAGSAA,binds
24,VTRGADAV,no binding

row,Variant,non-specific binding call
1,VTRGADAA,no binding
2,VTGTSDVA,no binding
3,YTRGGSGA,binds
4,FTRRSSLF chain 1 V111I,binds
5,VTTKSFGV,no binding
6,VTTKSDSA,no binding
7,VTTKSDSV,no binding
8,VTTEASLD,no binding
9,DTKAAAGD,no binding
10,STGTGYVF,no binding
11,VTKESAAV,no binding
12,STTRGAVA,no binding
13,YTTGGYLV,binds
14,VTKETFSF,no binding
15,YTREGAVA,no binding
16,YTRKSSVD,binds
17,ATTGGDWD,no binding
